Results from paper PMC9040798.
Where a chain is given by its changes, count along the chain named.

Key:
Test in all cases: EMSA
Conditions in all cases: DIG gel shift kit (2nd generation, Roche), as in ref 14; buffer, salt, pH and temperature not stated
[1] = system: T1, GdhR P6S P6S (Neisseria gonorrhoeae MS11), ORF:8165ddaf
T1 sequence: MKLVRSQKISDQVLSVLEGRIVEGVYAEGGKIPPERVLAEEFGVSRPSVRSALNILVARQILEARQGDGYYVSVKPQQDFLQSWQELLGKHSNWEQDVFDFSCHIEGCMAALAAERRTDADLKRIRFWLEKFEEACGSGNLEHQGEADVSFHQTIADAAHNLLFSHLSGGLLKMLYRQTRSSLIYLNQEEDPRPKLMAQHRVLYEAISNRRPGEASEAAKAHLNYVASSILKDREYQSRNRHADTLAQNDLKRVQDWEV

[2] = system: GdhR WT;GdhR P6S P6S (Neisseria gonorrhoeae;Neisseria gonorrhoeae MS11), ORF:8165ddaf+ORF:8165ddaf
[3] = system: T2, GdhR WT (Neisseria gonorrhoeae), ORF:8165ddaf
T2 sequence: T1 sequence with S6P

GTGGACGGGGACGGCGCGGTATTCGTGCCGCCGGAAGAATGCTGAAAATGCCGTCTGAAGCCTTTCGGGCGGCTTTTTCTACACGCCCCTTTCCCACACTCCCTCCGCCGCATCATCACCATCCTTAACCCGCATTAATAGCCATTATCGATAAAATGCTTGACCGATTACATAAGATTACGTAAAGTGTGCAAACGCATAATAATTGGTCTTACCAATTTATCTTTTAACCAAAATATCGGGTGTGCGGGATTTGAACGTCTTTCCAAACCTCGACGCGCCTTATGATGC (double strand) [lctP promoter -313 to -23]
binding [1]: binds more weakly | binding [2]: binds | binding [3]: binds
